Test results published in PMC3664799 (Nucleic Acids Research, 2013).

T1: DnaEBs DNA polymerase (Bacillus subtilis DnaE) (Bacillus subtilis, UniProt O34623 1-1115)
T1 sequence (looked up): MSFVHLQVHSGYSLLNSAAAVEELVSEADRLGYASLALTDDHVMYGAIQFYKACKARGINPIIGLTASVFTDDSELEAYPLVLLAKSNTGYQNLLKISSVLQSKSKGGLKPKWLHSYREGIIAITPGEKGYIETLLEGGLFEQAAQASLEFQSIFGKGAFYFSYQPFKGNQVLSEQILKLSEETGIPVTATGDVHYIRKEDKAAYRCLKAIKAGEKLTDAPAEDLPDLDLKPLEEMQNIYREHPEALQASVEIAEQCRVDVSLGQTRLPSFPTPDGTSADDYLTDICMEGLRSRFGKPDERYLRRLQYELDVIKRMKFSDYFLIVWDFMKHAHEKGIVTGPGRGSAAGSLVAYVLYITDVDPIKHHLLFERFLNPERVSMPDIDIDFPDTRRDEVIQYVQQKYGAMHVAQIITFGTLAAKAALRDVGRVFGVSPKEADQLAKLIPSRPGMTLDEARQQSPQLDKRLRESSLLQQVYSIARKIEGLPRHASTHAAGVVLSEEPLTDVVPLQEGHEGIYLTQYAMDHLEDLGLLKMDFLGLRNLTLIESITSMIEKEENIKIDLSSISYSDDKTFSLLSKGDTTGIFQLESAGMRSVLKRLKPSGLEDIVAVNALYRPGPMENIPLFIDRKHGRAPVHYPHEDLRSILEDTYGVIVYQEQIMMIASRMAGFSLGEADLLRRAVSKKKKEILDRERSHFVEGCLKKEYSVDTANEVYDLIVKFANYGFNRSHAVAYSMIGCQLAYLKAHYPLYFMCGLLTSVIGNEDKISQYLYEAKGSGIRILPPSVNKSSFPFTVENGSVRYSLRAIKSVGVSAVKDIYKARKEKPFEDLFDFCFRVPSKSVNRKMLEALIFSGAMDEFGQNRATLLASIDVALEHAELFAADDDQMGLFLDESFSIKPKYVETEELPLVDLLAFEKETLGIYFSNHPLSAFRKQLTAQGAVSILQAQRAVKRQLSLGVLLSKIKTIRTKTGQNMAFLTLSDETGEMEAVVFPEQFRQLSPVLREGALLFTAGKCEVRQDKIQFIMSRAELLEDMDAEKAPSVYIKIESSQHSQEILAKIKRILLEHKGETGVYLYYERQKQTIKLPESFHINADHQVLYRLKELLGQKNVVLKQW

B1: DnaG primase (Bacillus subtilis) (enzyme, UniProt P05096 1-603, looked up)
chain: MGNRIPDEIVDQVQKSADIVEVIGDYVQLKKQGRNYFGLCPFHGESTPSFSVSPDKQIFHCFGCGAGGNVFSFLRQMEGYSFAESVSHLADKYQIDFPDDITVHSGARPESSGEQKMAEAHELLKKFYHHLLINTKEGQEALDYLLSRGFTKELINEFQIGYALDSWDFITKFLVKRGFSEAQMEKAGLLIRREDGSGYFDRFRNRVMFPIHDHHGAVVAFSGRALGSQQPKYMNSPETPLFHKSKLLYNFYKARLHIRKQERAVLFEGFADVISAVSSDVKESIATMGTSLTDDHVKILRRNVEEIILCYDSDKAGYEATLKASELLQKKGCKVRVAMIPDGLDPDDYIKKFGGEKFKNDIIDASVTVMAFKMQYFRKGKNLSDEGDRLAYIKDVLKEISTLSGSLEQEVYVKQLASEFSLSQESLTEQLSVFSKQNKPADNSGETKTRRAHLTTKARQKRLRPAYENAERLLLAHMLRDRSVIKKVIDRVGFQFNIDEHRALAAYLYAFYEEGAELTPQHLMARVTDDHISQLLSDILMLQVNQELSEAELSDYVKKVLNQRNWSMIKEKEAERAEAERQKDFLRAASLAQEIVTLNRSLK
B2: DnaC6-DnaI6 complex (co-purified DnaC helicase and DnaI loader) (complex, Bacillus subtilis)
chain 1: MTDLLNDRLPPQNIEAEQAVLGAIFLQPSALTLASEVLIPDDFYRMSHQKIYNAMLVLGDRGEPVDLVTVTSELANTDLLEEVGGISYLTDIANSVPTAANIEYYAKIVEEKSILRRLIRTATTIAQDGYTREDEVEDLLSEAEKTIMEVAQRKNTSAFQNIKDVLVQTYDNIEQLHNRKGDITGIPTGFTELDRMTAGFQRNDLIIVAARPSVGKTAFALNIAQNVATKTDESVAIFSLEMGAEQLVMRMLCAEGNINAQNLRTGNLTEEDWGKLTMAMGSLSNSGIYIDDTPGIRVSEIRAKCRRLKQESGLGMILIDYLQLIQGSGRSKDNRQQEVSEISRELKSIARELQVPVIALSQLSRGVEQRQDKRPMMSDIRESGSIEQDADIVAFLYRDDYYDKETENKNIIEIIIAKQRNGPVGTVSLAFVKEYNKFVNLERRFDDAGVPPGA
chain 2: MEPIGRSLQGVTGRPDFQKRLEQMKEKVMKDQDVQAFLKENEEVIDQKMIEKSLNKLYEYIEQSKNCSYCSEDENCNNLLEGYHPKLVVNGRSIDIEYYECPVKRKLDQQKKQQSLMKSMYIQQDLLGATFQQVDISDPSRLAMFQHVTDFLKSYNETGKGKGLYLYGKFGVGKTFMLAAIANELAEKEYSSMIVYVPEFVRELKNSLQDQTLEEKLNMVKTTPVLMLDDIGAESMTSWVRDEVIGTVLQHRMSQQLPTFFSSNFSPDELKHHFTYSQRGEKEEVKAARLMERILYLAAPIRLDGENRRHP

Columns and labels:
[1] = biological target: T1, DnaEBs DNA polymerase (Bacillus …); experiment: SPR
[2] = biological target: B2; experiment: SPR
[3] = biological target: T1, DnaEBs DNA polymerase (Bacillus …); experiment: SEC

B1 showed a Ka [1] of 1.33e+08 M⁻¹, a Kd [1] of 752 nM and a koff [1] of 0.00181 s⁻¹. The kon [1] was 2400 M⁻¹ s⁻¹, the Ka [2] was 3.77e+06 M⁻¹ and the Kd [2] was 295 nM. It also gave a koff [2] of 0.000287 s⁻¹ and a kon [2] of 1080 M⁻¹ s⁻¹.

B2: binds [3].
